From article PMC9718841

What was measured:
[1] = biological target: recombinant human CALM2 protein (human) (UniProt P0DP24); experiment: MST; CaCl2
[2] = biological target: recombinant human CALM2 protein (human) (UniProt P0DP24); experiment: MST; labelled CALM2 at 500 nM, peptide in 16-point serial dilution, 25 °C; in the absence (1 mM EDTA, Apo-CALM2) and presence of Ca2+

Chain of peptide TLIQ2 (O00206 whole entry, looked up, tested part not stated): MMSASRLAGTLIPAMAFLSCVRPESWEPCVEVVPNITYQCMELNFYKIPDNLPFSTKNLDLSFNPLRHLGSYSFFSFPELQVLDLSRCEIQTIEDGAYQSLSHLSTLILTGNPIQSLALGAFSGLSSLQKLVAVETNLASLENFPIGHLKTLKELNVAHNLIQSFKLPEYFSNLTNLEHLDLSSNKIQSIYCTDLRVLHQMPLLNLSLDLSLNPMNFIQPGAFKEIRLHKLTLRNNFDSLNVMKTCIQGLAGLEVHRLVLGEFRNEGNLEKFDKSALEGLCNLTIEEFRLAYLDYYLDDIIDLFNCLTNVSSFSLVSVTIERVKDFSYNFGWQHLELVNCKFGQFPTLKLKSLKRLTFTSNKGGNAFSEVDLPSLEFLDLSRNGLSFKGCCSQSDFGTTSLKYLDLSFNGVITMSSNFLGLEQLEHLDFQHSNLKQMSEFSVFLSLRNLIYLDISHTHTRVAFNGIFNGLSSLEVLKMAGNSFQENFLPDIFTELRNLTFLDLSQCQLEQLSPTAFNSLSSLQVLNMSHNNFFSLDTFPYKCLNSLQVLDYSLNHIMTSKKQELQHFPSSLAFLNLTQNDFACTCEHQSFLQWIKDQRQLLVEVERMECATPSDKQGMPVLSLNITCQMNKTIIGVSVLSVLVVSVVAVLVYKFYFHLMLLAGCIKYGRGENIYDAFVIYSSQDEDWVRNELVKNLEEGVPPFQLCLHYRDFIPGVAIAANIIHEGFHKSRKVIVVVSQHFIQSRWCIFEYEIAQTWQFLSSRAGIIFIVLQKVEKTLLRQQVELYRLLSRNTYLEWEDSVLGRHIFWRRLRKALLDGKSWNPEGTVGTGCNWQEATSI

Kd [1]	Kd [2]	Substance
9.03 µM	–	peptide TLIQ2 (from UniProt O00206)
–	6.69 µM	peptide TLIQ2
